Numbering of substitutions follows the chain as printed.
T1: human Siglec-5 expressed on human primary cells (human, UniProt O15389 17-551)
T1 construct: Endogenous receptor on human primary monocytes, dendritic cells, macrophages and neutrophils; also called CD170
T1 sequence: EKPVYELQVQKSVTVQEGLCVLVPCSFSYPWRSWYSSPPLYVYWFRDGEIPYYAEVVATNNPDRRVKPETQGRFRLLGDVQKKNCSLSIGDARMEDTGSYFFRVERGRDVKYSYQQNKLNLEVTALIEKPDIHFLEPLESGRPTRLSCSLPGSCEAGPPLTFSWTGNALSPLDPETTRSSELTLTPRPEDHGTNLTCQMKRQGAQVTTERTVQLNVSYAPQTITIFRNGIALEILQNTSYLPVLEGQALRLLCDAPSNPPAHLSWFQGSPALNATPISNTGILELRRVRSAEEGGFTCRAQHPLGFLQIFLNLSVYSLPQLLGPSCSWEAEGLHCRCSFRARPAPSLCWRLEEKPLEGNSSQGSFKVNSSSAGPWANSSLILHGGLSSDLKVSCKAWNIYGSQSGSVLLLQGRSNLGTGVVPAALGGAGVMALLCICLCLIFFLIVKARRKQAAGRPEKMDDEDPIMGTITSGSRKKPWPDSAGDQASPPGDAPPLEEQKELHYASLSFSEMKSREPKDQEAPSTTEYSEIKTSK

T2: Human Siglec 5, Fc chimera (R&D Systems) (human, UniProt O15389 17-434, limits assumed)
T2 construct: Bought or recombinant Fc fusion; also called recombinant Siglec-5-Fc; not shown: Fc part
T2 sequence: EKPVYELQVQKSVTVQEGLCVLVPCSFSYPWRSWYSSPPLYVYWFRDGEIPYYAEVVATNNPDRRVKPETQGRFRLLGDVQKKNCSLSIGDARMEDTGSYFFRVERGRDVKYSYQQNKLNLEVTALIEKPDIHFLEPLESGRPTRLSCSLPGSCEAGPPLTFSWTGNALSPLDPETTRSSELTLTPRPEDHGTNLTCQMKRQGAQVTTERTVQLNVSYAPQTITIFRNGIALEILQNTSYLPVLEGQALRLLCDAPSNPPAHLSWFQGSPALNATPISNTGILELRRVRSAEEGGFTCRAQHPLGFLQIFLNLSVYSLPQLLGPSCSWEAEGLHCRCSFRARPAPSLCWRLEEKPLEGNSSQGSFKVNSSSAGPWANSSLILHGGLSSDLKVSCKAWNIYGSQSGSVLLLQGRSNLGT

T3: Histidine-tagged human Siglec-5 (NovoProtein) (human, UniProt O15389 17-434, limits assumed)
T3 construct: Bought protein; also called Siglec-5-his tagged protein; not shown: histidine tag
T3 sequence: T2 sequence

B1: anti-Siglec-5 monoclonal antibody 7A5 (antibody, IgG1, V domains shown)
VH: EIQLQQSGPELVKPGASVKVSCKASGYSFTDYNMYWVKQSHGKSLEWIGYIDPYNGGTTYNQKFKGKATLTVDKSSSTAFMHLNSLTSEDSAVFYCAFYYGYYGVPYWGQGTLVTVSA
VL: DIVMIQSQKFMSTSVGDRVSVTCKASQNVDTNVAWYQQKPGQSPKALIYSASYRYSGVPDRFTGSGSGTDFTLTISNVQSEDLAEYFCQQYNSFPLTFGSGTKLEIK
B2: anti-Siglec-5 monoclonal antibody 5H2 (antibody, IgG1, V domains shown)
VH: B1 VH with I2V, T59S, H82L, F94Y, F98L, G101D, Y103D, V105I
VL: B1 VL with I5T, D30G, Q37R, S56N, F94Y, L96Y, S100G
B3: anti-Siglec-5 monoclonal antibody 10F9 (antibody, IgG1, V domains shown)
VH: EIQLQQSGPELVKPGASVKVSCKASGYSFTGYNMYWVKQSHGKSFEWIGYIDPYTGGTSYNQRFKGKATLTVDKSSSTAFMHLNSLTSEDSAIYYCALFYDYDGFPYWGQGTLVTVSA
VL: B1 VL with I5T, F94Y, L96Y, S100G
B4: anti-Siglec-5 monoclonal antibody 10B6 (antibody, IgG1, V domains shown)
VH: B1 VH with W47C, I48F, T58P, T59Y, F94Y
VL: B1 VL with I5T, Q27H, D30G, N32S, A46S, F94Y
B5: anti-Siglec-5 monoclonal antibody 9B1 (antibody, IgG1, V domains shown)
VH: QVQLQQSGAELVKPGASVKLSCKASGYTFTEYTIHWVKQRSGQGLEWIGWFYPGSGSIKYNEKFKDKATLTADKSSSTVYMELSRLTSEDSAVYFCARQEEGGIGFDYWGQGTTLTVSS
VL: DVLMTQTPLSLLVSLGDQASISCRSSQSIVHSNGNTYLEWYLQKPGQSPKLLIYKVSIRFSGVPDRFSGSGSGTDFTLKISRVEAEDLGVYYCFQGSHVPWTFGGGTKLEIK
B6: anti-Siglec-5 monoclonal antibody 11C6 (antibody, IgG1, V domains shown)
VH: B5 VH with D73V, L83F, E100D, E101Y, G102D, I104L, D107A, T114L, L115V, S119A
VL: B5 VL with L12P, S28T, I58N
notes: also called 1106

Molecular target: T1, human Siglec-5 expressed on human …
Assay: flow cytometry, human primary monocytes, 10 ug/ml mAb
Method: (§1) Initial characterization of Siglec-5 antibodies involved determining their ability to bind Siglec-5 expressed on human primary monocytes, human primary macrophages, human primary dendritic cells, and human primary neutrophils. Cells were harvested, plated at 10⁶1m1 in a 96 well plate, and incubated in 100 μl PBS containing 2% FBS, 2 mM EDTA and 10 μg/ml Mab and Fc blocking reagent for 1 hour in ice. […] Cells were washed twice in cold PBS and analyze by flow cytometry on a BD FACS Canto. Data analysis and calculation of MFI values was performed with FlowJo (TreeStar) software version 10.0.7.
(§2) Binding is compared to an isotype control.

Row | % Positive [%] | MFI | Binder
1 | 93.5 | 391 | B1
2 | 96.1 | 404 | B2
3 | 95.3 | 405 | B3
4 | 98.2 | 421 | B4
5 | 97.6 | 382 | B5
6 | 95.7 | 386 | B6

Molecular target: T1, human Siglec-5 expressed on human …
Assay: flow cytometry, human primary macrophages, 10 ug/ml mAb
Method: as §1, §2

Row | % Positive [%] | MFI | Binder
7 | 84.1 | 445 | B1
8 | 93.5 | 537 | B2
9 | 96.2 | 562 | B3
10 | 94.4 | 581 | B4
11 | 94 | 560 | B5
12 | 80.6 | 451 | B6

Molecular target: T1, human Siglec-5 expressed on human …
Assay: flow cytometry, human primary neutrophils, 10 ug/ml mAb
Method: as §1, §2

Row | % Positive [%] | MFI | Binder
13 | 94.6 | 261 | B1
14 | 98.1 | 329 | B2
15 | 98.9 | 371 | B3
16 | 94.4 | 253 | B4
17 | 99.2 | 411 | B5
18 | 99.7 | 500 | B6

Molecular target: T1, human Siglec-5 expressed on human …
Assay: flow cytometry, human primary dendritic cells, 10 ug/ml mAb
Method: as §1, §2

Row | % Positive [%] | MFI | Binder
19 | 90.3 | 467 | B1
20 | 94 | 515 | B2
21 | 95.6 | 589 | B3
22 | 93.6 | 607 | B4
23 | 96.1 | 660 | B5
24 | 86.9 | 402 | B6

Molecular target: T2, Human Siglec 5, Fc chimera (R&D Systems)
Assay: RBC adhesion to plate-bound Siglec-5-Fc, 0.3 ug/ml mAb, percent of binding without antibody
Method: (§3) Siglec-5 antibodies (0.3 μg/ml or 1.0 μg/ml) were bound for one hour at RT with gentle rocking. After removal of unbound antibody, red blood cells were added to each well at a concentration of 3.0 ×10⁶ cells per ml and incubated at RT for one hour. Unbound RBCs were then carefully washed off 3X with PBS, and water was added to each well for hypotonic lysis of bound RBCs. The plate was transferred to -80° C. for 10 minutes, followed by 37° C. for 15 minutes. Bound RBCs were detected by peroxidase activity, followed by 2N sulfuric acid to stop the reaction.

Row | Percent RBC Binding to Siglec-5 [%] | Binder
25 | 47.4 | B1
26 | 36.5 | B2
27 | 48.7 | B3
28 | 27.5 | B4
29 | 29.2 | B5
30 | 25.4 | B6

Molecular target: T2, Human Siglec 5, Fc chimera (R&D Systems)
Assay: RBC adhesion to plate-bound Siglec-5-Fc, 1.0 ug/ml mAb, percent of binding without antibody
Method: as §3

Row | Percent RBC Binding to Siglec-5 [%] | Binder
31 | 6.86 | B1
32 | 9.94 | B2
33 | 6.22 | B3
34 | 5.21 | B4
35 | 5.79 | B5
36 | 4.76 | B6

Molecular target: T3, Histidine-tagged human Siglec-5 …
Assay: SPR (BiaCore T200, 25 C), mAb captured on anti-mouse IgG, 15 nM His-tagged Siglec-5, single-concentration 1:1 fit
Method: The binding affinity of each anti-Siglec-5 antibody was determined by measuring their KD by surface plasmon resonance (SPR) assays. SPR data was collected at a rate of 10 Hz at 25° C. on a BiaCore T200 instrument. Data analysis was performed using BiaCore T200 Evaluation
Histidine-tagged human Siglec-5 (NovoProtein) was then flowed over the captured anti-Siglec-5 surface (120 s contact time, 30 4/min flow rate, 300 s dissociation time). […] Duplicate single-concentration trials were performed and bracketed by a blank (0 nM antigen) sample. The chip surface was regenerated in between cycles using 10 mM glycine-HCl, pH 1.7 (60 s contact time, 30 4/min flow rate, 60 s stabilization time). The resulting SPR signal was obtained as the difference in response from measurements performed on a blank flow cell.
Affinity constants (KD) were calculated from the ratio kd/kₐ.

Row | Kd [nM] | Binder
37 | 0.112 | B1
38 | 0.184 | B2
39 | 0.104 | B3
40 | 0.101 | B4
41 | 0.069 | B5
42 | 0.166 | B6

— patent US20210017275A1 (Alector, published 2021)
